According to patent US20230279152A1 (published 2023):
Changes are numbered by the printed parent chain.

B1: 32G4-huIgG1-V8×OKT3 (anti-CLDN18.2×CD3) bispecific antibody (bispecific antibody)
heavy: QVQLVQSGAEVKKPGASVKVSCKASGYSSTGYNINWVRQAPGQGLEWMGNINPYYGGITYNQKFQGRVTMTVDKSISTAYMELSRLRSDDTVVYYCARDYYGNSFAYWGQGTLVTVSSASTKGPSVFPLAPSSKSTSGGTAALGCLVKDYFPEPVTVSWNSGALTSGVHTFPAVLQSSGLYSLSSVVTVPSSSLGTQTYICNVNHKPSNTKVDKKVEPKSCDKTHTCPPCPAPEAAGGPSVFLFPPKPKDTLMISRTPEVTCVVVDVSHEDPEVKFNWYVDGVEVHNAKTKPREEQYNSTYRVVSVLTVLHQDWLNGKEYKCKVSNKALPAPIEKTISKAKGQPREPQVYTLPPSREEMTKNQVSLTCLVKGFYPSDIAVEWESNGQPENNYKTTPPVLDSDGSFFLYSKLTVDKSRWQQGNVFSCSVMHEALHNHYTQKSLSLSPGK
light: DIQMTQSPSSLSASVGDRVTITCRSSQSLLNSGNQKNYLTWYQQKPGKAPKLLIFWASTLESGVPSRFSGSGSGTDFTLTISSLQPEDFATYYCQNNYYFPYTFGQGTKLEIKRTVAAPSVFIFPPSDEQLKSGTASVVCLLNNFYPREAKVQWKVDNALQSGNSQESVTEQDSKDSTYSLSSTLTLSKADYEKHKVYACEVTHQGLSSPVTKSFNRGECTSGGGGSGGGGSGGGGSQVQLVQSGGGVVQPGRSLRLSCKASGYTFTRYTMHWVRQAPGKGLEWIGYINPSRGYTNYNQKFKDRFTISRDNSKNTAFLQMDSLRPEDTGVYFCARYYDDHYSLDYWGQGTPVTVSSGGGGSGGGGSGGGGSGGGGSGGGGSGGGGSDIQMTQSPSSLSASVGDRVTITCSASSSVSYMNWYQQTPGKAPKRWIYDTSKLASGVPSRFSGSGSGTDYTFTISSLQPEDIATYYCQQWSSNPFTFGQGTKLQIT
B2: 47D10-huIgG1-V6×OKT3 (anti-CLDN18.2×CD3) bispecific antibody (bispecific antibody)
heavy: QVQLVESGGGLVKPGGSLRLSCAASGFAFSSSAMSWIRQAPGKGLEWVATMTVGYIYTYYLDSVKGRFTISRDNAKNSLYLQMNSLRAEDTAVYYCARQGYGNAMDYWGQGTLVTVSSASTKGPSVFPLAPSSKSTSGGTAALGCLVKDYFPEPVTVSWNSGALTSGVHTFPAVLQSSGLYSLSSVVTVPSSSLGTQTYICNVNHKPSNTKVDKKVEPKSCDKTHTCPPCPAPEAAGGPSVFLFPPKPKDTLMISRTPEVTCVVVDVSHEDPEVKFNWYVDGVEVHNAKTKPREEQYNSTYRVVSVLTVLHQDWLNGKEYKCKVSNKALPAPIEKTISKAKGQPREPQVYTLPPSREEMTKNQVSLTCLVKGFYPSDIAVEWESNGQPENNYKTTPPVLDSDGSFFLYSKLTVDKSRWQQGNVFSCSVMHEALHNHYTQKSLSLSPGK
light: DIVMTQSPLSLPVTPGEPASISCRSSQSLLNSGNQKNYLTWYLQKPGQSPQLLIYWASTRESGVPDRFSGSGSGTDFTLKISRVEAEDVGVYYCQNNYIYPLTFGQGTKLEIKRTVAAPSVFIFPPSDEQLKSGTASVVCLLNNFYPREAKVQWKVDNALQSGNSQESVTEQDSKDSTYSLSSTLTLSKADYEKHKVYACEVTHQGLSSPVTKSFNRGECTSGGGGSGGGGSGGGGSQVQLVQSGGGVVQPGRSLRLSCKASGYTFTRYTMHWVRQAPGKGLEWIGYINPSRGYTNYNQKFKDRFTISRDNSKNTAFLQMDSLRPEDTGVYFCARYYDDHYSLDYWGQGTPVTVSSGGGGSGGGGSGGGGSGGGGSGGGGSGGGGSDIQMTQSPSSLSASVGDRVTITCSASSSVSYMNWYQQTPGKAPKRWIYDTSKLASGVPSRFSGSGSGTDYTFTISSLQPEDIATYYCQQWSSNPFTFGQGTKLQIT
B3: 47D10-huIgG1-V7×OKT3 (anti-CLDN18.2×CD3) bispecific antibody (bispecific antibody)
heavy: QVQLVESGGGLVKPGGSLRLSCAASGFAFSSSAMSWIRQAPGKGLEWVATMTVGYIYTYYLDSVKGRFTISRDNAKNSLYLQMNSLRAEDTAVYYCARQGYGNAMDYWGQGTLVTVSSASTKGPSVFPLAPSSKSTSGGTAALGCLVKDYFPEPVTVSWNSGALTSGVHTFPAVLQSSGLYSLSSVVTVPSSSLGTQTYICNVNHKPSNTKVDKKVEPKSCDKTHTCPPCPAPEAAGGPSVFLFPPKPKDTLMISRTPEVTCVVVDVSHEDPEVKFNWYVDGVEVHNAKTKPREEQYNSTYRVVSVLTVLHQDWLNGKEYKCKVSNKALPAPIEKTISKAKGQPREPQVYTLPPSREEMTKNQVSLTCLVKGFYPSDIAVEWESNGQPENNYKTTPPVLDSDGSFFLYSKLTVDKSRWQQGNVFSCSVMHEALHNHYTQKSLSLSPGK
light: DIVMTQSPGTLSLSPGERATLSCRSSQSLLNSGNQKNYLTWYQQKPGQAPRLLIYWASTRESGIPDRFSGSGSGTDFTLTISRLEPEDFAVYYCQNNYIYPLTFGQGTKLEIKRTVAAPSVFIFPPSDEQLKSGTASVVCLLNNFYPREAKVQWKVDNALQSGNSQESVTEQDSKDSTYSLSSTLTLSKADYEKHKVYACEVTHQGLSSPVTKSFNRGECTSGGGGSGGGGSGGGGSQVQLVQSGGGVVQPGRSLRLSCKASGYTFTRYTMHWVRQAPGKGLEWIGYINPSRGYTNYNQKFKDRFTISRDNSKNTAFLQMDSLRPEDTGVYFCARYYDDHYSLDYWGQGTPVTVSSGGGGSGGGGSGGGGSGGGGSGGGGSGGGGSDIQMTQSPSSLSASVGDRVTITCSASSSVSYMNWYQQTPGKAPKRWIYDTSKLASGVPSRFSGSGSGTDYTFTISSLQPEDIATYYCQQWSSNPFTFGQGTKLQIT
B4: 32G4 mouse chimeric antibody (murine VH/VL on human IgG1 constant regions) (antibody, V domains shown)
VH: EVQLQQSGPELENPGASVKIFCKASGYSSTGYNINWVKQSSGKSLEWIGNINPYYGGITYNQKFKGKATLTVDKSSSTAYVQLKSLTSEDSAVYYCARDYYGNSFAYWGQGTLVTVST
VL: DIVMTQSPSSLTVTAGEKVTMSCKSSQSLLNSGNQKNYLTWYQQNPGQPPKLLIFWASTRESGVPDRFTGSGSGTDFTLTISSVQAEDLAVYYCQNNYYFPYTFGGGTKLEIR
notes: also called murine clone 32G4; mouse 32G4 chimeric control antibody
B5: 47D10 mouse chimeric antibody (murine VH/VL on human IgG1 constant regions) (antibody, V domains shown)
VH: QVMLVESGGGLVKPGGSLKLSCAASGFAFSSSAMSWIRQTPEKRLEWVATMTVGYIYTYYLDTVKGRFIISRDNANNTLYLQMSSLRSEDSAMYYCARQGYGNAMDYWGQGTSVTVSS
VL: B4 VL with N45K, F55Y, D66Y, Q85E, Y99I, F100Y, Y102L, G106A, I112L, R113K
notes: also called murine clone 47D10; mouse 47D10 chimeric control antibody
B6: 29G4 mouse chimeric antibody (murine VH/VL on human IgG1 constant regions) (antibody, V domains shown)
VH: QVQLKESGPGLVAPSQTLSITCTVSGFSLTNYGVQWVRQPPGKGLEWLGVIWAGGNTNYNSALLSRLSISKDTSKSQVFLKMNSLKTDDTAMYYCARGGYGNSCDYWGQGTLVTVSA
VL: DIVMTQSPSSLTVTAGEKVTMNCKSSQSLLNSGNQKNYLAWYRQKPGQPPKLLIYWASTRGSGVPDRFTGSGSGTDFALTISSVQAEDLAVYYCQNDYFYPLTFGAGTKLDLK
notes: also called murine clone 29G4
B7: 31A6 mouse chimeric antibody (murine VH/VL on human IgG1 constant regions) (antibody, V domains shown)
VH: QTYLQQSGAELVRSGASVKMSCKASGYTFASYNIHWVKQTPGQGLEWIGYIYPGKDGSHYNQKFRDKATLTADTSSSTAYMQISSLTSEDSAVYFCARGGYYGNSFDYWGQGTLVTVSA
VL: DIVMSQSPSSLTVTTGEKVTMTCKSSQSLLNSGNLKNYLAWYQQKPGQPPKLLIYWASIRESGVPDRFTGSGSGTDFTLTIISVQAEDLAIYYCQNAYTFPFTLGGGTKLEIK
notes: also called murine clone 31A6
B8: 15B10 mouse chimeric antibody (murine VH/VL on human IgG1 constant regions) (antibody, V domains shown)
VH: QVQLQQSGAELVRPGTSVKVSCKASGYAFSNYLIDWVKQRPGQGLEWIGVIHPGSGTNYNENFKGKATLTADKSSSTAYMQLSSLTSDDSAVYFCSRRWYGNSLIYWGQGTLVTVSA
VL: B6 VL with N22T, K36R, A40T, R43Q, G61E, A78T, L102F, A106S, D111E, L112I
notes: also called murine clone 15B10
B9: 32G4-huIgG1-V8 (antibody, V domains shown)
VH: QVQLVQSGAEVKKPGASVKVSCKASGYSSTGYNINWVRQAPGQGLEWMGNINPYYGGITYNQKFQGRVTMTVDKSISTAYMELSRLRSDDTVVYYCARDYYGNSFAYWGQGTLVTVSS
VL: DIQMTQSPSSLSASVGDRVTITCRSSQSLLNSGNQKNYLTWYQQKPGKAPKLLIFWASTLESGVPSRFSGSGSGTDFTLTISSLQPEDFATYYCQNNYYFPYTFGQGTKLEIKR
notes: Humanized full IgG1 antibody; also called humanized 32G4 variant V8; 32G4-V8
B10: 32G4-huIgG1-V9 (antibody, V domains shown)
VH: EVQLVQSGSELKKPGASVKVSCKASGYSSTGYNINWVRQAPGQGLEWIGNINPYYGGITYNQGFTGRFVLSVDKSSSTAYLQISSLKAEDTAVYYCARDYYGNSFAYWGQGTLVTVSS
VL: DIVMTQSPDSLAVSLGERATINCKSSQSLLNSGNQKNYLTWYQQKPGQPPKLLIFWASTRESGVPDRFSGSGSGTDFTLTISSLQAEDVAVYYCQNNYYFPYTFGQGTKLEIKR
notes: Humanized full IgG1 antibody; also called humanized 32G4 variant V9; 32G4-V9
B11: 47D10-huIgG1-V6 (antibody, V domains shown)
VH: QVQLVESGGGLVKPGGSLRLSCAASGFAFSSSAMSWIRQAPGKGLEWVATMTVGYIYTYYLDSVKGRFTISRDNAKNSLYLQMNSLRAEDTAVYYCARQGYGNAMDYWGQGTLVTVSS
VL: DIVMTQSPLSLPVTPGEPASISCRSSQSLLNSGNQKNYLTWYLQKPGQSPQLLIYWASTRESGVPDRFSGSGSGTDFTLKISRVEAEDVGVYYCQNNYIYPLTFGQGTKLEIKR
notes: Humanized full IgG1 antibody; also called humanized 47D10 variant V6; 47D10-V6
B12: 47D10-huIgG1-V7 (antibody, V domains shown)
VH: B11 VH
VL: DIVMTQSPGTLSLSPGERATLSCRSSQSLLNSGNQKNYLTWYQQKPGQAPRLLIYWASTRESGIPDRFSGSGSGTDFTLTISRLEPEDFAVYYCQNNYIYPLTFGQGTKLEIKR
notes: Humanized full IgG1 antibody; also called humanized 47D10 variant V7; 47D10-V7

Key:
[1] = target: human Claudin 18.2 protein (human); assay: cell-based or functional assay
[2] = target: T1, human Claudin 18.2 protein (human); assay: FACS cell surface binding analysis
T1 construct: Expressed on transfected cells (CHO-hCLDN18.2, HEK293-hCLDN18.2, 3T3-hCLDN18.2) from pCMV3-hCLDN18.2; also called human CLDN18.2; hCLDN18.2
T1 sequence (chain, as listed by the source limits assumed): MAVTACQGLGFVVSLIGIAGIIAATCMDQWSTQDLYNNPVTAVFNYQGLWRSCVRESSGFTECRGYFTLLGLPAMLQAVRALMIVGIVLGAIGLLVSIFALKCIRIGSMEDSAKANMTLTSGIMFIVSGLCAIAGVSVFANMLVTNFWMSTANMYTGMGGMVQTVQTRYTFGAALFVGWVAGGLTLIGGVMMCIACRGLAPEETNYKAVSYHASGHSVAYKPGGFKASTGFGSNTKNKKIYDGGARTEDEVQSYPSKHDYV

[3] = target: T1, human Claudin 18.2 protein; assay: FACS on cells expressing CLDN18.2 versus cells expressing CLDN18.1 (reference: binding to CLDN18.1)
Description: FACS cell binding assays. […] Cells were fixed with 1% paraformaldehyde (PFA) prior to analysis on FACSCalibur cytometer (BD biosciences, Franklin Lakes, N.J., U.S.). Controls were cells with secondary antibody only, for which the mean fluorescent intensity (MFI) was set to 5.

Binder | TDCC activity (T cell dependent cellular cytotoxicity; CellTiter-Glo cell viability, PBMCs as effectors, 48 hours) [1] | EC50 [2] | fold stronger binding to CLDN18.2 than to CLDN18.1 [3]
B1 | 1 pM | – | –
B2 | 1 pM | – | –
B3 | 1 pM | – | –
B4 | – | 0.502 nM | ≥ 1000 times
B5 | – | 1.97 nM | ≥ 1000 times
B6 | – | 1.26 nM | ≥ 1000 times
B7 | – | 10.9 nM | ≥ 1000 times
B8 | – | 2.2 nM | ≥ 1000 times
B9 | – | 0.147 nM | –
B10 | – | 0.129 nM | –
B11 | – | 0.22 nM | –
B12 | – | 0.361 nM | –
